In patent US20130123192A1 (RESEARCH FOUNDATION OF STATE UNIVERSITY OF NEW YORK, published 2013):
Where no end group is shown, it is not given here.

Legend:
[1] = molecular target: T1, Membrane type 1 matrix metalloproteinase (MT1-MMP) (Homo sapiens, UniProt P50281 112-582); experiment: cell-based or functional assay
[2] = molecular target: T1, Membrane type 1 matrix …; experiment: flow cytometry on cells expressing MT1-MMP

Row | Binder | IC50, 3D invasion assay (human MDA-MB-231 breast cancer cell invasion) [1] | binding result [2]
1 | VMDGYPMP [IS4-8 peptide (VMDGYPMP)] | 1500 nM | –
2 | GYPMP [IS4-5 peptide (GYPMP)] | 1500 nM | –

Now from value to binder:

Row | IC50, 3D invasion assay (human MDA-MB-231 breast cancer cell invasion) [1] | binding result [2] | Binder
3 | 10000 nM | – | GYPKSALR [IVS4-8 peptide (GYPKSALR)]
4 | – | binds | GYPMP (also: biotinylated (site not given here), also called biotinylated IS4-5 peptides) [biotinylated IS4-5 peptide]
